Drawing on patent US20050282743A1, “Molecular interactions in cells” (Arbor Vita Corporation, priority 2001, published 2005), this text covers Kd, Classification and % binding of labelled 20-mer for three molecules.

Assay [1] has as its target T1, GST-PTPL1 PDZ domain 2 (Homo sapiens (Human)), Q12923.
T1 chain: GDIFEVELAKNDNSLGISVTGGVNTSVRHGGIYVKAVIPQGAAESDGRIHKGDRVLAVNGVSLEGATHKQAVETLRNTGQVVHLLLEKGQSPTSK
Description: G assay titration, PDZ 0.5 ug/ml.

Assay [2] has as its target T2, GST-BAI-1 Associated Protein PDZ domain 3 (Homo sapiens (Human)), Q96QZ7. Description: G assay titration, PDZ 0.5 ug/ml.
Assay [3] deals with T1, GST-PTPL1 PDZ domain 2 (Homo sapiens …). As to the kind of experiment: G' assay. Further: key of the grades not given here.
Assay [4] addresses GST-PIST PDZ domain 1 (Mus musculus (Mouse)), Q8BH60. Description: G' assay. Further: key of the grades not given here.
In assay [5] the target is T3, GST-KIAA0807(S) PDZ domain 1 (Homo sapiens (Human)), Q6P0Q8.
T3 chain: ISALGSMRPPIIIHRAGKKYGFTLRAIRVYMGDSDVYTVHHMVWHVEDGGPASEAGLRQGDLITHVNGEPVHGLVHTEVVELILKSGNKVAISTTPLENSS
Description: G' assay. Further: key of the grades not given here.

The target of assay [6] is T4, GST-MINT1 PDZ domains 1, 2, Q02410.
T4 chain: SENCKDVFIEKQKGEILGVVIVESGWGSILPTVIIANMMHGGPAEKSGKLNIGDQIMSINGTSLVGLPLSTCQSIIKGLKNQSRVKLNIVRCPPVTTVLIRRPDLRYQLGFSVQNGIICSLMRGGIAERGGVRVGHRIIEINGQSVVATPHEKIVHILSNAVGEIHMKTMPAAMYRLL
As to the kind of experiment: G' assay. Further: key of the grades not given here.

In assay [7] the target is T5, GST-HEMBA 1003117 PDZ domain 1 (Homo sapiens (Human)), Q96JH8.
T5 chain: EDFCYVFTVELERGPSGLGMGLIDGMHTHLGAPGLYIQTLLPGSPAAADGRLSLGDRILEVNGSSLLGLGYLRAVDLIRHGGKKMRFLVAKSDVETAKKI
As to the kind of experiment: G' assay. Further: key of the grades not given here.

For assay [8], the target named is GST-KIAA0316 PDZ domain 1 (Homo sapiens (Human)), Q14CM0. Description: G' assay. Further: key of the grades not given here.
Sequence of GST-KIAA0316 PDZ domain 1 (Homo sapiens (Human)), Q14CM0 (Q14CM0 72-159): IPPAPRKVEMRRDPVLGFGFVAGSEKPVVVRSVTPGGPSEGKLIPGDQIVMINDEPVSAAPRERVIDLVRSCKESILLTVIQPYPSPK
The target in assay [9] is T6, GST-MINT1 PDZ domain 2 (Mus musculus (Mouse)), B2RUJ5.
T6 chain: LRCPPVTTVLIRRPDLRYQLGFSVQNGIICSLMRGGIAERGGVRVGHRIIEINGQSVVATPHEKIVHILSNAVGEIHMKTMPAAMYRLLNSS
Description: G' assay. Further: key of the grades not given here.

Assay [10] has as its target T7, GST-KIAA1634 PDZ domain 2 (Homo sapiens (Human)), Q5TCQ9.
T7 chain: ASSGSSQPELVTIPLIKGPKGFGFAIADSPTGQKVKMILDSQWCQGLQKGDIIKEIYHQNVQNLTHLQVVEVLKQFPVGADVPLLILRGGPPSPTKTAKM
Description: G' assay. Further: key of the grades not given here.

Assay [11] addresses T8, GST-FLJ 10324 PDZ domain 1 [GST: P08515].
T8 chain: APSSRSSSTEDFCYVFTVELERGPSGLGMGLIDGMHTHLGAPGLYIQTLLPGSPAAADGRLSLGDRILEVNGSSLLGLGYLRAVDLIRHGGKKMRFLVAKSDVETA
Description: G' assay.

In assay [12] the target is T2, GST-BAI-1 Associated Protein PDZ domain …. As to the kind of experiment: G' assay.
Assay [13] deals with GST-KIAA807 [GST: P08515]. Description: G' assay.
Sequence of GST-KIAA807 [GST: P08515] (P08515 whole entry, the tested form may be a part): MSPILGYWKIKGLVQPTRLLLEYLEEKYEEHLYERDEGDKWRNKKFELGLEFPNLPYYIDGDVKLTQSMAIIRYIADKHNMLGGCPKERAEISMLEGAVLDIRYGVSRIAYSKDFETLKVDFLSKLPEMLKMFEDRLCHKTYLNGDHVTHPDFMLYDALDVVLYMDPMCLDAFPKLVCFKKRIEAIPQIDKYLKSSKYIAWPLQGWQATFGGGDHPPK
Assay [14] has as its target T9, GST-PTPL1 PDZ domain 4 (Homo sapiens (Human)), Q12923.
T9 chain: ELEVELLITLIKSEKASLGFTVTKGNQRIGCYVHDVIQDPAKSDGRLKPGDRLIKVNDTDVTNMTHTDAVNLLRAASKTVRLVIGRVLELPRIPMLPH
As to the kind of experiment: G' assay.

Assay [15] addresses GST-PSD95 PDZ domains 1, 2, 3 (Homo sapiens), P78352. As to the kind of experiment: G assay competition vs 10 uM biotin-CD95 20-mer; competitor 50 uM.
For assay [16] the target is unchanged. Description: G assay competition vs 10 uM biotin-KV1.3 20-mer; competitor 50 uM.
For assay [17] the target is unchanged. As to the kind of experiment: G assay competition vs 20 uM biotin-CD46 20-mer; competitor 50 uM.
For assay [18] the target is unchanged. As to the kind of experiment: G assay competition vs 20 uM biotin-CLASP-2 20-mer; competitor 50 uM.
Assay [19] addresses GST-DLG1 PDZ domains 1, 2 (Homo sapiens), Q12959. Description: G' assay. Further: key of the grades not given here.
Assay [20] deals with T10, GST-NOS1 PDZ domain 1 (Homo sapiens (Human)), P29475.
T10 chain: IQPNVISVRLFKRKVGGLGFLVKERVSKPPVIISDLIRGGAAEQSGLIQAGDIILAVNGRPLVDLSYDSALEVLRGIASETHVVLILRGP
As to the kind of experiment: G' assay. Conditions: remark: other sources report otherwise.

Assay [21] deals with GST-KIAA1634 PDZ domain 1 (Homo sapiens (Human)), Q5TCQ9. Description: G' assay. Further: key of the grades not given here.
Sequence of GST-KIAA1634 PDZ domain 1 (Homo sapiens (Human)), Q5TCQ9 (Q5TCQ9 401-502): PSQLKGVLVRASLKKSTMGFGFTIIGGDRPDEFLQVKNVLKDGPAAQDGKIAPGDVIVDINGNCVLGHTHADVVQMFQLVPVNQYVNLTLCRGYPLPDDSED
Assay [22] concerns the target T11, GST-Shank 1 PDZ domain 1 (Homo sapiens (Human)), Q9UPX8.
T11 chain: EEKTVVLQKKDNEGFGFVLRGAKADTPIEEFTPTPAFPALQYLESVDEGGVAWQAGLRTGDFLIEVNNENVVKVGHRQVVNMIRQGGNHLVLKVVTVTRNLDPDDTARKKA
Description: G' assay.

The target of assay [23] is T12, GST-NeDLG PDZ domain 3 (Mus musculus (Mouse)), P70175.
T12 chain: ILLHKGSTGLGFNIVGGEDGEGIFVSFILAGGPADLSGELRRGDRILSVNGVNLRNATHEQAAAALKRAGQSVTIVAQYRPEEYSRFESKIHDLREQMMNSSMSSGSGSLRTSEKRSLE
Description: G' assay.

The target in assay [24] is T13, GST-TIP1 PDZ domain 1 (Table 9 insert) (Homo sapiens (Human)), O14907.
T13 chain: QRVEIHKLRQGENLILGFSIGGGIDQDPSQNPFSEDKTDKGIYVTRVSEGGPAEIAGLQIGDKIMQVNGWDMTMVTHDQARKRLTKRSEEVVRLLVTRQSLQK
As to the kind of experiment: G' assay.

Assay [25] concerns the target T14, GST-INADL PDZ domain 8 (Homo sapiens (Human)), Q8NI35.
T14 chain: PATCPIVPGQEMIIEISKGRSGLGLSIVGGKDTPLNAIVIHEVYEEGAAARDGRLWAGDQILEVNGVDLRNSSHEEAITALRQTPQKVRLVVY
Description: G' assay.

Assay [26] addresses GST-PSD95 PDZ domains 1, 2, 3 (Homo sapiens), P78352. As to the kind of experiment: G' assay. Further: key of the grades not given here.
Assay [27] deals with T15, GST-NeDLG PDZ domains 1, 2, Q92796.
T15 chain: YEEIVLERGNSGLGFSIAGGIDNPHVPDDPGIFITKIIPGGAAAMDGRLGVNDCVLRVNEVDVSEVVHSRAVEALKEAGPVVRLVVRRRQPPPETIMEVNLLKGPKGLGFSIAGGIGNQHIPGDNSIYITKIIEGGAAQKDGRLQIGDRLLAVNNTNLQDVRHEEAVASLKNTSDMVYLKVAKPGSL
Description: G' assay.

The target in assay [28] is T16, GST-EZRIN Binding Protein 50 PDZ domain 2 (Homo sapiens (Human)), O14745.
T16 chain: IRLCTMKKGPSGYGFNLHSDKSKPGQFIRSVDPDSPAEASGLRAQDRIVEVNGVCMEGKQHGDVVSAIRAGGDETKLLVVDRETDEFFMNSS
Description: G' assay.

Assay [29] concerns the target T17, GST-Shank 3 PDZ domain 1 (human (hypothetical, computer cloned)), Q9BYB0.
T17 chain: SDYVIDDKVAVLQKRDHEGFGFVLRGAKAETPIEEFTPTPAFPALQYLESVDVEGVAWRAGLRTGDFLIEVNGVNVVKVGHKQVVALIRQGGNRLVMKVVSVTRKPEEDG
As to the kind of experiment: G' assay.

Assay [30] has as its target T18, GST-ZO-1 PDZ domain 1 (Rattus norvegicus (Rat)), A0A0G2.
T18 chain: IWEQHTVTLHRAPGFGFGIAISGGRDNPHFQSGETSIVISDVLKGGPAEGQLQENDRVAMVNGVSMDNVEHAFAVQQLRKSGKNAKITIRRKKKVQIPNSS
Description: G' assay.

Assay [31] has as its target T19, GST-EZRIN Binding Protein 50 PDZ domain 1 (Homo sapiens (Human)), O14745.
T19 chain: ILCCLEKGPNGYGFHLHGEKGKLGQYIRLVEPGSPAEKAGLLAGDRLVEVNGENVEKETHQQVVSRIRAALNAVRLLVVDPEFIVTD
As to the kind of experiment: G' assay.

Assay [32] concerns the target T20, GST-Atrophin-1 Interacting Protein PDZ domain 1 (Rattus norvegicus (Rat)), O88382. Description: G' assay. Further: key of the grades not given here.
Assay [33] addresses T11, GST-Shank 1 PDZ domain 1 (Homo sapiens …). Description: G assay titration, PDZ 5 ug/ml.
Assay [34] has as its target T20, GST-Atrophin-1 Interacting Protein PDZ …. Description: G assay titration, PDZ 5 ug/ml.
For assay [35], the target named is GST-KIAA1634 PDZ domain 1 (Homo sapiens (Human)), Q5TCQ9. Description: G assay titration, PDZ 1 ug/ml.

Sequence of GST-PSD95 PDZ domains 1, 2, 3 (Homo sapiens), P78352 (P78352 62-395): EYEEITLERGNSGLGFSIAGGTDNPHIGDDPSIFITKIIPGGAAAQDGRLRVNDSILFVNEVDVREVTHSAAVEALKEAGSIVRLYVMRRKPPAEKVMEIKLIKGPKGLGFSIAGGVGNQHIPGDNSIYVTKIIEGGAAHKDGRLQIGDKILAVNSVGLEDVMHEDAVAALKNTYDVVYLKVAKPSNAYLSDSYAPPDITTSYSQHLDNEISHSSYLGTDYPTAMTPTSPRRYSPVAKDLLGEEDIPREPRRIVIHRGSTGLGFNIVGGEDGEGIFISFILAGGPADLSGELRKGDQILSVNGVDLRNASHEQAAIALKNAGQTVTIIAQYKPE
T20 sequence (O88382 408-511): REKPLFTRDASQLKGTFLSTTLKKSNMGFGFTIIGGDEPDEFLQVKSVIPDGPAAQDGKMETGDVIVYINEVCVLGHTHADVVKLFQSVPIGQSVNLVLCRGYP
T2 sequence (Q96QZ7 other isoform, or with tags, fused parts or gaps): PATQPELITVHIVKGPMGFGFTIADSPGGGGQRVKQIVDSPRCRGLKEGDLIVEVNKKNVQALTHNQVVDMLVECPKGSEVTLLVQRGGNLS

As to DTLLLTENEGDKTEEQVSYV (modifications not checked) [serotonin receptor 5HT-2B], the Kd in [1] came to 0.2 µM; in assay [2], 2 µM. In addition, the Classification in assay [3] is 5 A450 class; in assay [4] it was 1 A450 class; in assay [5] it was 1 A450 class; in [6] it was 1 A450 class; in [7], 1 A450 class; in [8] it was 1 A450 class. The Classification is 1 A450 class in assay [9]; 5 A450 class in assay [10]; 2 A450 class in assay [11]; 4 A450 class in assay [12]; 1 A450 class in assay [13]; 2 A450 class in assay [14].

As to MTSSSSVV (modifications not checked) [CLASP-2 8-mer], the % binding of labelled 20-mer in assay [15] came out at 80%; in [16] it was 82%; in assay [17] it was 90%; in assay [18] it was 85%.

In the case of TFAAGFNSTGLPHSTTRV (modifications not checked) [Neuroligin], the Classification in assay [19] was 2 A450 class; in assay [3], 1 A450 class; in assay [5] it was 3 A450 class; in assay [6], 1 A450 class; in [20] it was 1 A450 class; in assay [21] it was 4 A450 class. Further, the Classification in [10] came to 2 A450 class; in assay [22] it was 2 A450 class; in assay [23] it was 1 A450 class; in [24], 1 A450 class; in assay [25] it was 1 A450 class; in [11], 1 A450 class. Also, the Classification in assay [26] turned out to be 2 A450 class; in assay [27], 1 A450 class; in assay [28] it was 1 A450 class; in assay [29], 3 A450 class; in [30] it was 1 A450 class; in assay [31], 2 A450 class. Moreover, the Classification in [32] is 2 A450 class; in assay [13], 3 A450 class; in [14], 1 A450 class. The Kd in [33] was determined as 0.3 µM; in assay [34], 0.25 µM; in assay [35] it was 0.1 µM.
